This data set in a line: yeast display, Sf9 membrane polyspecificity reagent, FACS + sequencing; frameworks hold sequencing errors. The method in brief: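 A nanobody's polyreactivity label depends on the gate it was sorted from. Yeast display cells were stained with 10% biotinylated, detergent-solubilized Sf9 membrane reagent for 1 hour at 4 °C, enriched on streptavidin microbeads and sorted by FACS. The low and high (top ~1%) gates were set on anti-HA fluorescence for expression and streptavidin fluorescence for reagent binding.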
Regarding “QVQLVESGGGLVQAGGSLRLSCAASGITFKTNARGWYRQAPGKERELVAAINKRGGSTYYADSVKGRFTISRDNAKNTVYLQMNSLKPEDTAVYYCARRYGEKFGGQGTQVTVSS”, the “polyreactivity (PSR sort gate)” value was “high polyreactivity”.
Consider “QVQLVESGGGLVQAGGSLRLSCAASGITFLDNAMGWYRQAPGKERELVAAITSDGNTYYADSVKGRFTISRDNAKNTVYLQMNSLKPEDTAVYYCAARGFLKYVTEFDYWGQGTQVTVSS”, for which the “polyreactivity (PSR sort gate)” value was “low polyreactivity”.
As to “QVQLVESGGGLVQAGGSLRLSCAASGITFLEYAMGWYRQAPGKERELVATINSGGSTNYADSVKGRFTISRDNAKNTVYLQMNSLKPVDTAVYYCAADYGSDYTKGDYWGQGTQVTVSS”, the “polyreactivity (PSR sort gate)” value is on record as “low polyreactivity”.
With “QVQLVESGGGLVQAGGSLRLSCAASGITFLFYVMGRYRQERGKERELVSTINSDDTTYYADSVKGRFTISRDNAKNTVYLQMNCLKPEDTAVYYCAADTWLWYGFDHWGQGTQVTVSS” the entry was “high polyreactivity”; with “QVQLVESGGGLVQAGGSLRLSCAASGITFLKNAMGWYRQAPGKERELVAAISSSGGSTYYADSVKGRFTISRDNAKNTVYLQMNSLKPEDTAVYYCAAYPTSTVVDDFDYWGQGTQVTVSS”, “high polyreactivity”; with “QVQLVESGGGLVQAGGSLRLSCAASGITFLKNAMGWYRQAPGKESELVAAISSSGGSTYYADSVKGRFTISRDNAKNTVYLQMNSLKPEDTAVYYCAARIYWYTPGRRGYTYDYWGQGTQVTVSS”, “high polyreactivity”.
The result for “QVQLVESGGGLVQAGGSLRLSCAASGITFLNYAMGWYRQAPGKERELVAAIDTRGGRTNYADSVKGRFTISRDNAKNNVYLQMNSLKPEDTAVYYCAADPFYWYRSVRGEYWGQGSQVTVSS” reads “low polyreactivity”; that for “QVQLVESGGGLVQAGGSLRLSCAASGITFLNYAMGWYRQAPGKERELVAAIDTRGGRTNYADSVKGRFTISRDNAKNTVYLQMNSLKPEDTAVYYCNALGYYVHKMDYWGQGTQVTVSS”, “low polyreactivity”; that for “QVQLVESGGGLVQAGGSLRLSCAASGITFLNYAMGWYRQATGKERELVAANDTRGGRTNYADSVKGRFTISRDNAKNTVYLQMNSVKPEDTEVYYCYALGYYVHKMDYWGQGTQVTVSS”, “low polyreactivity”.
For the sequence “QVQLVESGGGLVQAGGSLRLSCAASGITFLPYAMGWYRQAPGKERELVAAITRGGGSTYADSVKGRFTISRDNAKYTVYLQMKSLKPEDTAVYYCAKRLGRVSWYEDYDYWGQGTEVTVSS”, the “polyreactivity (PSR sort gate)” value is “low polyreactivity”.
For the sequence “QVQLVESGGGLVQAGGSLRLSCAASGITFLPYARGWYRQAPGKERELVAAITRGGGSTYADSVKGRFTISRDNAKNTVYLQMNSLKPEDTAVYYCAKRYGRVSWYEDYDYWGQGTQVTVSS”, the “polyreactivity (PSR sort gate)” value is recorded as “low polyreactivity”.
As to “QVQLVESGGGLVQAGGSLRLSCAASGITFLRNTMGWYRQAPGKERELVAAISRCGSTYYADSVKGRFTISRDNAKNTVYLQMNSLKPEDTAVYYCNAPSYVQATDYDYWGQGTQVTVSS”, the “polyreactivity (PSR sort gate)” value is “high polyreactivity”.
Turning to “QVQLVESGGGLVQAGGSLRLSCAASGITFLRYAMGWYRKSPGKERELVARISSGGRTDYADSVKGRFTISRDNAKNTVYLQMNSLKPEDSAVYYCNATVYEWHTEYDYWGQGTQVTVSS”, the “polyreactivity (PSR sort gate)” value is recorded as “high polyreactivity”.
Consider “QVQLVESGGGLVQAGGSLRLSCAASGITFLSNAMGWYRQAPGKERELDAAISRGGGTTYYADSVKGRFTISRDIAKNTVYLLMNCLKPEDTAGSYCGTESTHTRRYWYEYWGLGTQVTVSS”, for which the “polyreactivity (PSR sort gate)” value is listed as “high polyreactivity”.
Turning to “QVQLVESGGGLVQAGGSLRLSCAASGITFLVYAMGWYRQAPGKERELVAAISADAGGTYYADSVKGRFTISRDNAKNTVYLQMNSLKPEDTAVYYCNVDGRSDGDDYWGQGTQVTVSS”, the “polyreactivity (PSR sort gate)” value was “low polyreactivity”.
As to “QVQLVESGGGLVQAGGSLRLSCAASGITFLYYAMGWYRQAPGTERELVAAITSSGGRTYYADSVKGRFTISRDNAKNTVCLQMNSLKPEDTAVYYCAADSRTYNGGYYWGQGTQVTVSS”, the “polyreactivity (PSR sort gate)” value is “high polyreactivity”.
Turning to “QVQLVESGGGLVQAGGSLRLSCAASGITFNFYAMGWYRQAPGKERELVAAITQSGGSTYYADSVKGRFTISRDNAKNTVYLQMNSLKPEDTAVYYCAAARTGHMYYWGQGTQVTVSS”, the “polyreactivity (PSR sort gate)” value is “high polyreactivity”.
Take “QVQLVESGGGLVQAGGSLRLSCAASGITFNGYVMGWYRQAPGKERELVAAITSGARTYYADSVKGRFTISRDNAKNTVYLQMNSLKPEDTAVYYCAASIWLYRYYYWGQVTQVTVSS”: the “polyreactivity (PSR sort gate)” value is reported as “high polyreactivity”.
Take “QVQLVESGGGLVQAGGSLRLSCAASGITFNLYAMGWYRQAPGKEREFVAVITASGSSTYYADSVKGRFTISRDNAKNTVYLQMNSLKPEDTAVYYCAARWHIYYFSYVTSYAYGYWGQGTQVTVSS”: the “polyreactivity (PSR sort gate)” value is reported as “high polyreactivity”.
Turning to “QVQLVESGGGLVQAGGSLRLSCAASGITFNRYVMGWYRQAPGKERELVAANSRTGGSTYYADSVKGRFTISRDTGKNTVYLQMNILKPEDTAVYYCAAATSPGIYDYWGQGTQVTVSS”, the “polyreactivity (PSR sort gate)” value is listed as “high polyreactivity”.
With “QVQLVESGGGLVQAGGSLRLSCAASGITFNWYAMGWYRQAPGKERELVAAISGSGGRTYYADSVKGRFTISRDYPKNTVYLQMTSLKPEDTAVYYCNKVPYYAGQNYVYWGQGTQVTVSS” the entry was “high polyreactivity”; with “QVQLVESGGGLVQAGGSLRLSCAASGITFNYAMGWYRQAPGKERELVAAISRRGGSTYYADSVKGRFTISRDNAKNTVYLQMNSLKPEDTAVYYCNTTVWGSYYYWGQGTQVTVSS”, “high polyreactivity”; with “QVQLVESGGGLVQAGGSLRLSCAASGITFPENDMGWYIKAPGKEREFDADITSSGGNTYYADSVKGRFTISRDNAKNTVYLHMNSLKPEDSAVYYCNADDGYFYVYQGWYDEMDYWGQGTQVTVSS”, “high polyreactivity”.
As to “QVQLVESGGGLVQAGGSLRLSCAASGITFPGYAMGWYRQAPGKERELVAAISDSGSSTYYADSVKGRFTISRDNAKNTVYLQMNSLKPEDTAVYYCAAVSGFYDQYDYWGQGTQVTVSS”, the “polyreactivity (PSR sort gate)” value is “low polyreactivity”.
Consider “QVQLVESGGGLVQAGGSLRLSCAASGITFPGYAMGWYRQAPGKERELVAAISTSGGSTYYADSVKGRFTISRDNAKNTVYLQMNSLTPDDTAVYYCNARLVYYSYEEMDYWGQGTQVTVSS”, for which the “polyreactivity (PSR sort gate)” value is reported as “low polyreactivity”.
On to “QVQLVESGGGLVQAGGSLRLSCAASGITFPINAMGWYRQAPGKEREFVATISFSGASTYYADSVKGRFTISRDNAKNTVYLQMNSLKPEDTAVYYCAADLSLSTGGRAFPTYGYWGQGTQVTVSS”, for which the “polyreactivity (PSR sort gate)” value was “high polyreactivity”.
Turning to “QVQLVESGGGLVQAGGSLRLSCAASGITFPLYAMGWYRKAPGKERELVATISGRGGSTYYADYVKGRFTISRDNAKNTVYLQMNSLIPEDTAVYYCNADFRSPYFLLSWYHSGDYWGLGTQVTVSS”, the “polyreactivity (PSR sort gate)” value is “low polyreactivity”.
With “QVQLVESGGGLVQAGGSLRLSCAASGITFPRYAMGWYRLAPGKERELVATITRSGGGTYYADSVKGRFTISRDNAKNTVYLQMKSLKPEDTAVYYCAAGALQRGVYGYGYWGQGTEVTVSS”, the “polyreactivity (PSR sort gate)” value is given as “high polyreactivity”.
As to “QVQLVESGGGLVQAGGSLRLSCAASGITFPYYAKGWYRQAPGKERELVAGISRSGGRTYYADSVKGRFTISRDNAKNTVYLQMNSLKPEDTAVYYCNARKNLLSVTFDYWGQGTQVTVSS”, the “polyreactivity (PSR sort gate)” value was “high polyreactivity”.
Regarding “QVQLVESGGGLVQAGGSLRLSCAASGITFPYYALGWYRQAPGKERELVARISRGGRTNYADSVKGRFTISRDNAKNTVYLQMNSLKPEDTAVYYCNAGYTYYKYGYWGQGTQVTVSS”, the “polyreactivity (PSR sort gate)” value is reported as “high polyreactivity”.
Turning to “QVQLVESGGGLVQAGGSLRLSCAASGITFPYYAMGWSRQAPGKERELVAAISSSGGSSYYADSVKGRFTISRDNAKNTVYLQMNSLKPEDTAVYYCATRNTRFHLDYWGQGTQVTVSS”, the “polyreactivity (PSR sort gate)” value is listed as “high polyreactivity”.
With “QVQLVESGGGLVQAGGSLRLSCAASGITFPYYAMGWYRQAPGKERELVAAISSSGGSTYYADSVKGRFTISRDNAKNTVYLQMNSLKPEDTAVYYCAAQRYINYDYWGQGTQVTVSS” the entry was “high polyreactivity”.
The result for “QVQLVESGGGLVQAGGSLRLSCAASGITFPYYAMGWYRQAPGKERELVAAITRSGSSTYYADSVKGRFTISRDNAKNTVYLQMNSLKPEDTAVYYCAAKRGAGEDYWGQGTQVTVSS” reads “high polyreactivity”.
As to “QVQLVESGGGLVQAGGSLRLSCAASGITFPYYTMGWYRQAPGKERELVATIRNGGSTYYADSVKGRFTISRDNAKNTVYLQMNSMKPEDTAVYYCAAVPLWDYKFFYYLLYDYWGQGTQVTVSS”, the “polyreactivity (PSR sort gate)” value is “low polyreactivity”.
Consider “QVQLVESGGGLVQAGGSLRLSCAASGITFQANAMGWYRQAPGKERELVAAISSSDGSTYYADSVKGRFTISRDNAKNTVYVQMNSLKPEDTAVYYCAADGVVYGWPEYEYWGQGTQVTVSS”, for which the “polyreactivity (PSR sort gate)” value is recorded as “low polyreactivity”.
On to “QVQLVESGGGLVQAGGSLRLSCAASGITFQDNAIGSNRQAPGKERELVAAISTGSTNYADSVKGRFTISRDNAKNTVYLQMKSLKPDDTAVYYCAALGQYQTVYSDGYDYYYWGQGTQVTVSS”, for which the “polyreactivity (PSR sort gate)” value is “low polyreactivity”.
In the case of “QVQLVESGGGLVQAGGSLRLSCAASGITFQDYAMGWYRQAPGKERELVAAISKSGGSTYYADSVKGRFTISRDNAKNTVYLQMNSLKPEDTAVYYCAAYAQKRYYWGQGTQVTVSS”, the “polyreactivity (PSR sort gate)” value is listed as “high polyreactivity”.
Turning to “QVQLVESGGGLVQAGGSLRLSCAASGITFQNYAMGWYRQAPGKERELVAAITRSGGRTYYADSVKGRFTISRDNAMNTVYLQMNSLKPEDTAVYYCAVYGIGRPYWYDYWGQGTQVTVSS”, the “polyreactivity (PSR sort gate)” value is given as “high polyreactivity”.
Regarding “QVQLVESGGGLVQAGGSLRLSCAASGITFQNYAMGWYRQAPGKERELVAGISYSGGSTYYADSVKGRFTISRDHAKNTVFLLMNSLKPEDTAVYDCAATRWYSYRRYYYWGQGTQVTVSS”, the “polyreactivity (PSR sort gate)” value is recorded as “high polyreactivity”.
Regarding “QVQLVESGGGLVQAGGSLRLSCAASGITFQPYAMGWYRQAPGKEREFVAVISFRGGSTYYADSVKGRFTISRDNAKNTVYLQMNSLKPEDTAVYYCAALEYHGHTGGRVYYWVQGTQVTVSS”, the “polyreactivity (PSR sort gate)” value is listed as “high polyreactivity”.
For the sequence “QVQLVESGGGLVQAGGSLRLSCAASGITFQRYAMGWYRQAPGKERELVAAISTNGGTTYYADSVKGRFTISRDNAKNTVYLQMNSLKPEDTAVYYCNAESGYVYYIRYNYWGQGTQVTVSS”, the “polyreactivity (PSR sort gate)” value is reported as “high polyreactivity”.

The record behind these values is the nanobody polyreactivity screen of Harvey et al. (2022).
